# Test: label from the status in PepcDB records
row,Sequence,protein production
1,MMAERPQPVAAPEEDEIDLGQLLGQIWHGKLWIGSATLAAGMLGLAWLANTAPTYRADTLLQLEEKASPLALPTALSELAGGEARSATEVEILRSRLVLGEAVAAFHLDWEAKPLRAPLVGQAVASGVLPLPEVEGLIRYDRGDSRIRLDLLEVPPEWVEEPILLTAMGEGQFALLLPDGREETGEVGRPLAVPDRGFGLRIGALEGVRGRQFVIRQLDETGAIGALRDRLTVAERGKQSSILEVGLTGRDPAEVQRTLGGIAEAYLRQNMTRSAAEAESSLEFIEGQLPEAQKAVRAAEDRLNAYRQAQQAIDLGFEGQSLLTQISAIETELRQLADQEEEIANRYTSNHPTYQRLLAMRGRLEERLAALRKEVSNLPETQREVFNFTRDLEVAQEVYLQLLNRAQELRVVKASTIGNVRIVDGARTAPEPVAPRRGRTLALALLLGALSGTGLVLGRAWLRRSVRGPEELDRLGLPVFATVLFAPAAVGNRKGRGLLPILALSDPNSATVEGIRSLRTSLHFGMLDAGSRSIALTSSAPAAGKSFTSVNLAVVAAQAGQSVCLIDADLRRGHLRRYFAVAKGTPGLAEYLAGEAELDELLRPGPVEGLAFLSTGQLPPNPSELLMRPRLAELVAELDRRFDLSIFDAPPVLAVTDPVVIGRAVGATIAVVRHDVTGLGEVEALIRQLQGAGVKPAGAVLNAYRPQRGSGRYGYGYGYRYRYDTGYRPQSGD,failed
2,MMAKIDVELKKLHQILVDRDYFYQVPDYQRPYVWDKDHLGALIDDLVGSYTNNREDEYFCGSIVIVENQKDKRWDVVDGQQRLTSFIILACTILRLYKHSLGQESKDFIEDSIYDRYDKEKERLKFLTAQNYNSIFENTVLNHLEFEDNIKKSELNKKFEENTYLRNAYYFKELLNESVENGSISDIDDFVKWFYEHIVLTRIICFEQDSAMQIFQVLNDRGQPLSPIDILKSSLMQEIKQDSEKRKDFITTWDKLVEACKSVEGVDIDLEDFFNMYLEYADPSTSKKRADKGLKKVFKDSKKDACGFIYEISEFMKAYTALLKKQDRYVYLLRYLPSRYWASILTTALYVKYPDFDALKKLLVSYYYQTWIAGGTITRIKQTSINIIKNVKSNKSVETIKELILNSIDSYNTFDQYLYNLWDSSSVYHSKWVRPVLALANYFMADEEKPHFIAMDAETQVEHILPQTPKRGSQWNADFDKEKREEWVNNIANLTLLKRKKNAHALNGDFDEKRKIYGGKDTSKVISCYDITKELYSNYRKWNEKSLQERYKSLYNTITPVLHIEGQEDDFEDDFDLE,failed
3,MMALQEEKGKPVHCERHHESSSVDTEPGLEESKEVIKWKRLPGQACRIPNKHLFSLNAGERGCFCLDFSHNGRILAAACASRDGYPIILYEIPSGRFMRELCGHLNIIYDLSWSKDDHYILTSSSDGTARIWKNEINNTNTFRVLPHPSFVYTAKFHPAVRELVVTGCYDSMIRIWKVEMREDSAILVRQFDVHKSFINSLCFDTEGHHMYSGDCTGVIVVWNTYVKINDLEHSVHHWTINKEIKETEFKGIPISYLEIHPNGKRLLIHTKDSTLRIMDLRILVARKFVGAANYREKIHSTLTPCGTFLFAGSEDGIVYVWNPETGEQVAMYSDLPFKSPIRDISYHPFENMVAFCAFGQNEPILLYIYDFHVAQQEAEMFKRYNGTFPLPGIHQSQDALCTCPKLPHQGSFQIDEFVHTESSSTKMQLVKQRLETVTEVIRSCAAKVNKNLSFTSPPAVSSQQSKLKQSNMLTAQEILHQFGFTQTGIISIERKPCNHQVDTAPTVVALYDYTANRSDELTIHRGDIIRVFFKDNEDWWYGSIGKGQEGYFPANHVASETLYQELPPEIKERSPPLSPEEKTKIEKSPAPQKVK,failed
4,MMASYLSTPSVSYSMKSYDPVKVLYTVIISLVSLYTLYITSAFFYVLILSALFAYIIHPVYFFCIRFVKSKQICALIPLGTIFLITLASGVMIVKALMNEISRILEIPNTINGFANMDLRRIVGLFEPLIQTHPGKLTESIGAYLNSLVTDYVPQIQNNIFQISTGLSILIIELIVIVVLTYYLLVESETIATELPNLFPDRKVGVVFLGELNYIYQNLFIVYFLTCLITGIIGGVLYWALGVPYSLIWGILTFIMALLPVVGAGTVYGLLALYYVLIDDFFTAGALIFLGIVFLSIIPDFIMRPRFARNRAAIHPAITLVAFAAPVFVLGPIGIIIGPLTYGFLLAAFRTRKILGTSSAQTESSAAGSPEDLVGSQREKSDESPVGRSVERPVKASGERSRSGN,failed
5,MMCGGRGTRLDAAAEKPLFEVGGRAMVDHVRAALEAAGRIDTTHAAVSPHAPDTAAHLAATPLSLIETPGDGYVADLTAALDAVGTPVLTVAADLPLLAPAVVDTVVAAADGATTSACVPRALKHELGVSTDADADAWVPTGVNVVGGGDTEATHRSFDARLAVNVNHRSDAAVAARLLAATDRRNHPRLEHHHHHH,failed
6,MMDLHTHTVYSDGIGLIRDNVAWAEKRGLKIVGISDHIHFFTPSRFSAYINEINVIKEESEIVVLAGIEANILENGPDITDEFRKKLDYAIASVHEWFGRNGTHEYINYVKKAIMDDNVDIIGHFGNSFPWIGYPTREEIDEILDLAEAYGKAFEISARYKVPDLEFIRECVKRGIKLSLATDAHRPEDVGKVSWSLKMLEKAGGTKEDLIFSEYL,failed
7,MMDSIAGPIQVLSRQFPNAQQGKGAALNHAFQIVLTDAEKGHYSWDQVLVGVVDADGFFSENIVNELTAVFTDTTVCAAQTRIKMKDVTNFMFIAQDVEFFTINNFIQKARRATKTIGLGGNGQFFRLSMITEHLGYQPWGNALLDDYELTIKLMLKELSIAYIDEAFMAQEALRDVKRFIRQRSRWVQGNLDCLAYLPRVIKSKSLTLRQKCGIYYFLAQPFINLVAGMLVFVLTGLQLQHLYRLGFSLSLVISFVLAVSISLVFGIFFTINYYRELKNFQLKVPAKLGLIILPFTISYMYLILFVSVVMAYYRFIKGNSTWIKTERN,failed
8,MMEDDGQPRTLYVGNLSRDVTEVLILQLFSQIGPCKSCKMITEHTSNDPYCFVEFYEHRDAAAALAAMNGRKILGKEVKVNWATTPSSQK,not failed
9,MMEERAAAAVASAASSCRPLGSGTAPNPTAAAPASSPAPGPGPVGKGGGGGGSPGPTAGPEPLSLPGILHFIQHEWARFEAEKARWEAERAELQAQVAFLQGERKGQENLKTDLVRRIKMLEYALKQERAKYHKLKFGTDLNQGEKKTDLSEQVSNGPVESVTLENSPLVWKEGRQLLRQYLEEVGYTDTILDMRSKRVRSLLGRSLELNGAGEPVEGAPRASPGPGGLSGGESLLVKQIEEQIKRNAAGKDGKERLGGSVLEQIPFLQNCEDEDSDEDDELDSVQHKKQRVRLPSKALVPEMEDEDEEDDSEDAINEFDFLGSGEDGEGSPDPRRCTSEGNPHELESRRVKLQGILADLRDVDGLPPKVTVPPPGTPQPRPHEGSFGFSSDVFIMDTIGGGEVSLGDLADLTVTNDNDLSCDLSDSKDAFKKTWNPKFTLRSHYDGIRSLAFHHSQSALLTASEDGTLKLWNLQKAVTAKKNAALDVEPIHAFRAHRGPVLAVTMGSNSEYCYSGGADARIHSWKIPDLNMDPYDGYDPSVLSHVLEGHGDAVWGLAFSPTSQRLASCSADGTVRIWDPSSSGPSCLCTFPMDGEHGIPTSVAFTSTEPAHVVASFRSGDTVLYDLEAGSALLTLESRGSSGPAQINQVVSHPSQPLTITAHDDRGIRFLDNRTGKSVHSMVAHLDAVTCLAVDPNGVFLMSGSHDCSLRLWSLDNKTCVQEITAHRKKHEEAIHAVACHPSKALIASAGADALAKVFV,failed
10,MMEKIMEYLQLSDEVVDDGEAPRVEEFLGEGKSFYENFSLRGIRVNRVEPGFISCSFKVPLRLTDRDKNLANGAIANLVDEVGGALVHGEGLPMSVSVDMSIAFLSKAKLGEELEITSRLLGERGGYKGTIVVVRNKMTGEIIAEGRHSMFGRQASKL,failed
11,MMELDLPATIKRDMKFRYLLIIVPLLFPAHIFGQELPDLGDVSQASVTPHQERQIGIQIMREIRADSSYLDDPEIADYLTRLGNRLIAASGQTNPDNPFEFFAINDSSINAFALPGAFVGFHSGLITAAQNESELAGVMAHEIAHVTQKHLARMISGTSYLGLLGSIAALAIAILASRSNPNAGQAVLATAQASAIQSQLNFTRKHEKEADRVGFNMLIKAGFDPHGMSSFFERMQHASRYYENGMPSYLMTHPVTHERIADIQNRTQELGYRQVPDSLEFHLVRAKIRASRGNPASVINEFKARLQDKRYINEIAEQYGLIQALLRARQFKQADEELNTLYRTIQSDSSAQSLKNHRLGKSIQVDGDYLQSAAMIETLAARVKFASGQTDDAFRLYQSALQSFPHYRALVYGYADALLQHKDAQAALDFINGQSQFIHDDIRLYRLTAQCHAALGNALLQHQAEAEALIREGNLRAAIEQLQIALRHKHDNFYQLSSVEARLRQIKEFVAAEKEKK,failed
12,MMELHDLAEDLPSKWTEIMAVAEKAFRAFAELDAVKRELAESENAQ,not failed
13,MMEVGILPVHVLYVFFIGAIILFMLLRKDTTFISLFGIFIISLWASHSLSASVSSLFHSFIYAAGELLPTIFIICFIVSMSDLLTKTGINEAMISPFASLVRGPVTAYWLIGGLMFAISLFFWPSPGVALIGAVLLPAAARAGLTPLAAAMAMNLFGHGFALSGDFVIQAAPKLTADAAGIPVGDVVSASIPLVLIMGVTTTTAAFIMIQRERKKQEHPTSFSPVLSGEQDNSLYLPKRLRSILAFLIPLAFLADIACMLLFNLQGNDATALIGGSAICILFTVHFFVYKHKGLEKITGYFIDGFKFGFKVFGPVIPIAAFFYLGDSGYESILGTSLPKGSHGIVNDLGIALSHMMPMSKELAATALTAAGAITGLDGSGFSGISLAGSIAKLFSSALHADPAILTALGQISAIWVGGGTLVPWALIPAAAICKVDPFELARKNFIPVAIGLLVTTLAAVMML,failed
14,MMFFQVHPHLTDLVIRTLQATWQQFPWLGQEDIALTLLVYPPPIPVNTGGALTAAEFWQYLIPGAHYRGDVPMYPASVVKLFYLVACHEWLHSGMLQPDAELERAMRDMIVDSSNDATSLVVDMLTGTTSGPVLPPEPFRTWQYQRNIVNRYFQSLGWPELTQINVNQKTWCEGPYGREQEFVGRDRQNANRLTTNATAKLIHSIVGGVAVSASASQGMMELMERSLDPELLAQDPENQVQGFLGEGLPPGAKLWSKAGLTSWVRHDAAYIELPDRCPYTLVVFMENSTASKNTEVLPFISRQIASGIPTLEGAGVL,failed
15,MMGSVELNLRETELCLGLPGGDTVAPVTGNKRGFSETVDLKLNLNNEPANKEGSTTHDVVTFDSKEKSACPKDPAKPPAKAQVVGWPPVRSYRKNVMVSCQKSSGGPEAAAFVKVSMDGAPYLRKIDLRMYKSYDELSNALSNMFSSFTMGKHGGEEGMIDFMNERKLMDLVNSWDYVPSYEDKDGDWMLVGDVPWPMFVDTCKRLRLMKGSDAIGLAPRAMEKCKSRA,failed
16,MMHHALHIKNGIVIDPKNGVKAEKMDIFVKNGKIVEESEVKGEDVKVIDANNKLVVAGGVDMHAHIAGSKINTGRTMRPEEMRVVRNIAGKFRAAVGRVLEHHHHHH,not failed
17,MMHSTVQHGGNKSGKSNVWANTNLAKTVAAVDEFKFGFPSGGLTTVSNKWWGRAEKGGREDGGGENTENGHVAACDETQNSLVAIRKRIAEEGREAVELGLHQGFGSKRPGKRDQALLFQIFNSAMPKDWVTPDSS,failed
18,MMIDPELRPAFLPAGKLRAAINLGNPILAGTDAAGQAVGVSVDLAREFARRLNAGIELRVFDTAGQSVDAVTREEADIGFFAIDPARGAGIAFTGPYVLIEGAYLVRDDSPLQANEDVDRAGKRVTVGKGSAYDLHLTRALQHAEIVRAASSQAVVDTFLARRLDVAAGVKQQLQADARRVGGVRLLPGRFMVIRQAMGLPKARGDAAAACLDAFVESMKGNGFVAQALARHGIQGASVAPPGRDG,failed
19,MMIDPELRPAFLPAGKLRAAINLGNPILAGTDAAGQAVGVSVDLAREFARRLNAGIELRVFDTAGQSVDAVTREEADIGFFAIDPARGAGIAFTGPYVLIEGAYLVRDDSPLQANEDVDRAGKRVTVGKGSAYDLHLTRALQHAEIVRAASSQAVVDTFLARRLDVAAGVKQQLQADARRVGGVRLLPGRFMVIRQAMGLPKARGDAAAACLDAFVESMKGNGFVAQALARHGLEHHHHHH,failed
